One molecule from patent US20190111149A1, “ANTI-EGFR ANTIBODY DRUG CONJUGATE” (priority 2016, published 2019) can be followed below.

As a reminder, the Kd is the concentration at which binding is half-saturated.

The target of experiment [1] is Photo optimized trastuzumab; meditope enabled (Tmab). Put plainly: BLI Octet, antibody on anti-human Fc tip, peptide […]. In general terms: Biolayer interferometry detects binding as a change in optical thickness at a sensor tip.
The target of experiment [2] is MBI_CD19_1; (SAR3419). The experiment is described as above.
Chain of MBI_CD19_1; (SAR3419) (chain, as listed by the source, chain 1 of 2): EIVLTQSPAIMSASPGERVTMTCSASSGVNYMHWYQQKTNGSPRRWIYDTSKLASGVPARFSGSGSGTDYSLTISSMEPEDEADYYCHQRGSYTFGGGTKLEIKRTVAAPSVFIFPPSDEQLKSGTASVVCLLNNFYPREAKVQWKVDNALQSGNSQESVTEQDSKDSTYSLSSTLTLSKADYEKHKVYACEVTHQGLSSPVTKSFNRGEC
Chain of MBI_CD19_1; (SAR3419) (chain, as listed by the source, chain 2 of 2): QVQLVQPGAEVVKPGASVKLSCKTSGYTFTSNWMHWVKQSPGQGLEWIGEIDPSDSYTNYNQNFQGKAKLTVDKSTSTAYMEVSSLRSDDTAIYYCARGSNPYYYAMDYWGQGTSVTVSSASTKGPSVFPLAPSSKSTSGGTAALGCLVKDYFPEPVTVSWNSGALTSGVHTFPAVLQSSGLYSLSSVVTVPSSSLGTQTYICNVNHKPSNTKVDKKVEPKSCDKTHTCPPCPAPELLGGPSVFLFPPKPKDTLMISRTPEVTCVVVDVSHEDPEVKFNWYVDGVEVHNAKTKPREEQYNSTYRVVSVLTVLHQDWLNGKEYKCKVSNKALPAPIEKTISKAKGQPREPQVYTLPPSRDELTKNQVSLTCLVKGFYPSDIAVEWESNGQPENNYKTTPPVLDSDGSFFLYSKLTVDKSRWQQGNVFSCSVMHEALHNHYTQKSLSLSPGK
For experiment [3], the target named is MBI_CD19_2; (MOR208). The experiment is described as above.
Chain of MBI_CD19_2; (MOR208) (chain, as listed by the source, chain 1 of 2): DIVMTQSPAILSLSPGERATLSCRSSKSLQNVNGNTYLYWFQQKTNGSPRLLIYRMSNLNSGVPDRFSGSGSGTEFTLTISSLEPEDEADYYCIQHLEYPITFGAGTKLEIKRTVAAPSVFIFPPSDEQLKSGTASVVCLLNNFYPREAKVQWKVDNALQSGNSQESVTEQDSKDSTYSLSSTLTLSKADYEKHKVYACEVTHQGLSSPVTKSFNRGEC
Chain of MBI_CD19_2; (MOR208) (chain, as listed by the source, chain 2 of 2): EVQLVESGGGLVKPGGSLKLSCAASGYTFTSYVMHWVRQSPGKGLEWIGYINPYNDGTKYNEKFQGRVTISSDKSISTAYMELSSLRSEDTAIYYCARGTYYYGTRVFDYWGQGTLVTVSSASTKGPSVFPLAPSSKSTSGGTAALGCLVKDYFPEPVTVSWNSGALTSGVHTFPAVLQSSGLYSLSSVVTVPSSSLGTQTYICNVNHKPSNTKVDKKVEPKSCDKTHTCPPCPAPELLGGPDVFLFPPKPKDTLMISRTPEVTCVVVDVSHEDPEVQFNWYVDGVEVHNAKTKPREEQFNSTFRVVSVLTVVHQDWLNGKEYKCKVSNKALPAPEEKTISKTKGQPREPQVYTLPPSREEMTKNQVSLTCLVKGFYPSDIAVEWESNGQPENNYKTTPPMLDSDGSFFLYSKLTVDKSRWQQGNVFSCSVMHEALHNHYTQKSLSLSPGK
Experiment [4] addresses Meditope enabled Ocaratuzumab. The description is as above.
Experiment [5] has as its target Meditope enabled Clivatuzumab. The experiment is described as above.
The target in experiment [6] is Photo optimized trastuzumab; meditope enabled (Tmab). Put plainly: BLI Octet, antibody on anti-human Fc tip, peptide 333 nM.
Experiment [7] addresses MBI_CD19_1; (SAR3419). The description is as above.
Experiment [8] deals with MBI_CD19_2; (MOR208). The experiment is described as above.
The target in experiment [9] is Meditope enabled Clivatuzumab. Described as above.
Chain of Meditope enabled Clivatuzumab (chain, as listed by the source, chain 1 of 2): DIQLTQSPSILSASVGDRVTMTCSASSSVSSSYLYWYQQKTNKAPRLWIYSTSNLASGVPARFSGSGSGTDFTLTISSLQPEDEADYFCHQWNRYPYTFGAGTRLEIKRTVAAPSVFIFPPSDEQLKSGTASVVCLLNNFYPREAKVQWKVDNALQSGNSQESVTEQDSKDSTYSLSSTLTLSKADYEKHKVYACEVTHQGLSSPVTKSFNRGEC
Chain of Meditope enabled Clivatuzumab (chain, as listed by the source, chain 2 of 2): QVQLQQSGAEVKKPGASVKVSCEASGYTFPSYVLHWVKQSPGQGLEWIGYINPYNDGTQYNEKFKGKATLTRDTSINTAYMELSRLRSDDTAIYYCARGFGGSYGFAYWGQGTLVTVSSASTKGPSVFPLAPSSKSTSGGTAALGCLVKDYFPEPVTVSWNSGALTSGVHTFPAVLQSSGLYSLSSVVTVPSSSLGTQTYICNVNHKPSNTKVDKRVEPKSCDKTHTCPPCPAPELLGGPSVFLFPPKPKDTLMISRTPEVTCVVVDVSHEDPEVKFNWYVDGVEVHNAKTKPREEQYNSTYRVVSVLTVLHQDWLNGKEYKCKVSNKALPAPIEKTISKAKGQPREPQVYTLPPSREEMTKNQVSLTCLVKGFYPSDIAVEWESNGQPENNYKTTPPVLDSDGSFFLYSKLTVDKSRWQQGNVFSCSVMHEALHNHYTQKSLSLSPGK
For experiment [10], the target named is Photo optimized trastuzumab; meditope enabled (Tmab). Put plainly: BLI Octet, antibody on anti-human Fc tip, peptide 37 nM.
The target of experiment [11] is MBI_CD19_1; (SAR3419). The experiment is described as above.
Experiment [12] addresses MBI_CD19_2; (MOR208). Described as above.
Experiment [13] addresses Meditope enabled Ocaratuzumab. Described as above.

Chain of Photo optimized trastuzumab; meditope enabled (Tmab) (chain, as listed by the source, chain 1 of 2): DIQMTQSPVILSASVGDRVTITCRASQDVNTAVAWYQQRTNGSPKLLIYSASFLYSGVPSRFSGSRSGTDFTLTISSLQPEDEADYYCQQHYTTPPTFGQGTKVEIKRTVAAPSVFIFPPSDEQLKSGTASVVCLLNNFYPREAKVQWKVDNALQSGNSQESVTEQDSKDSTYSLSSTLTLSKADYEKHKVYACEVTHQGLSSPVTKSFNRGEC
Chain of Photo optimized trastuzumab; meditope enabled (Tmab) (chain, as listed by the source, chain 2 of 2): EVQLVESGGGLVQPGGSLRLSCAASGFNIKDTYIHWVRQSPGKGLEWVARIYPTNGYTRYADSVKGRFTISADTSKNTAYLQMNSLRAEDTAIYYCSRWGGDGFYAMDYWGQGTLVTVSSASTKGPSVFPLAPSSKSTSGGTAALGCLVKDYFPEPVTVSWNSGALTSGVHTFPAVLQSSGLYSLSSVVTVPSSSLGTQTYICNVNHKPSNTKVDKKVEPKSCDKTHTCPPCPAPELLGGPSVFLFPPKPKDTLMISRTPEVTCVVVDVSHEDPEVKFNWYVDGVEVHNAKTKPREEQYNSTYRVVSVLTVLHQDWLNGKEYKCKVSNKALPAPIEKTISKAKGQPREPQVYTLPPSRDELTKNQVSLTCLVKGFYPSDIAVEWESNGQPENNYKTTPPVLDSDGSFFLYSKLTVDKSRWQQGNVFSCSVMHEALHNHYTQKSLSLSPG
Chain of Meditope enabled Ocaratuzumab (chain, as listed by the source, chain 1 of 2): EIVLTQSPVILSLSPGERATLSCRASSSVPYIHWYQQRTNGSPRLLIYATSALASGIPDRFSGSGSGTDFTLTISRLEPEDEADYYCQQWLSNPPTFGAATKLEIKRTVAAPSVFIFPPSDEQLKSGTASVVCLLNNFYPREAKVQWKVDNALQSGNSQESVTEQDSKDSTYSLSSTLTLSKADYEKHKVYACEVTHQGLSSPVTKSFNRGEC
Chain of Meditope enabled Ocaratuzumab (chain, as listed by the source, chain 2 of 2): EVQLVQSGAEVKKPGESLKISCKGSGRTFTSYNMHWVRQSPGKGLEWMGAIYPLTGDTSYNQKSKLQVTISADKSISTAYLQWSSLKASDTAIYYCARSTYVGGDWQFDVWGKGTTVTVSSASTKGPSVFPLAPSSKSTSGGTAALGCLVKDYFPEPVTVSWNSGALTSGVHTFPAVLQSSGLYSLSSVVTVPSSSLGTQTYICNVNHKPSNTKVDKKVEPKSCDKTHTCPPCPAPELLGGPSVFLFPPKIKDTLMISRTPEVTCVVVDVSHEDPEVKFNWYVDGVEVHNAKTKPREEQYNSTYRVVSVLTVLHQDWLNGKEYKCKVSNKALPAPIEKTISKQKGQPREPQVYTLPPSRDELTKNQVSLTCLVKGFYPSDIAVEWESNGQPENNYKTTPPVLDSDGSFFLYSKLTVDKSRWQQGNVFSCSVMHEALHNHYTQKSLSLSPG

B1: Peptide 22: DM1 conjugated cQFD (cQFD-DM1) (peptide)
peptide: CQFDLSTRRLRC
modifications: not checked
For B1, the dissociation constant Kd in [1] is 1.88 nM; in the experiment with MBI_CD19_1; (SAR3419) [2] it was less than 0.001 nM; with MBI_CD19_2; (MOR208) [3] it was 0.452 nM; in [4], less than 0.001 nM; in [5], 3160 nM; in [6] it was 1.63 nM. Further, the Kd is 5.23 nM in the experiment with MBI_CD19_1; (SAR3419) [7]; less than 0.001 nM with MBI_CD19_2; (MOR208) [8]; 2.69 nM in experiment [9]; 2.62 nM in experiment [10]; less than 0.001 nM with MBI_CD19_1; (SAR3419) [11]; less than 0.001 nM with MBI_CD19_2; (MOR208) [12]. Besides, the dissociation constant Kd in experiment [13] was less than 0.001 nM.
